Target: DPP9, short isoform (DPP9S), co-expressed with CARD8 for cryo-EM, Q86TI2
Assay: cryo-EM structure
Settings: remark: other sources report otherwise

B1: DPP9, short isoform (DPP9S), co-expressed with CARD8 for cryo-EM, Q86TI2-1 1-863 (enzyme)
chain: MATTGTPTADRGDAAATDDPAARFQVQKHSWDGLRSIIHGSRKYSGLIVNKAPHDFQFVQKTDESGPHSHRLYYLGMPYGSRENSLLYSEIPKKVRKEALLLLSWKQMLDHFQATPHHGVYSREEELLRERKRLGVFGITSYDFHSESGLFLFQASNSLFHCRDGGKNGFMVSPMKPLEIKTQCSGPRMDPKICPADPAFFSFINNSDLWVANIETGEERRLTFCHQGLSNVLDDPKSAGVATFVIQEEFDRFTGYWWCPTASWEGSEGLKTLRILYEEVDESEVEVIHVPSPALEERKTDSYRYPRTGSKNPKIALKLAEFQTDSQGKIVSTQEKELVQPFSSLFPKVEYIARAGWTRDGKYAWAMFLDRPQQWLQLVLLPPALFIPSTENEEQRLASARAVPRNVQPYVVYEEVTNVWINVHDIFYPFPQSEGEDELCFLRANECKTGFCHLYKVTAVLKSQGYDWSEPFSPGEDEFKCPIKEEIALTSGEWEVLARHGSKIWVNEETKLVYFQGTKDTPLEHHLYVVSYEAAGEIVRLTTPGFSHSCSMSQNFDMFVSHYSSVSTPPCVHVYKLSGPDDDPLHKQPRFWASMMEAASCPPDYVPPEIFHFHTRSDVRLYGMIYKPHALQPGKKHPTVLFVYGGPQVQLVNNSFKGIKYLRLNTLASLGYAVVVIDGRGSCQRGLRFEGALKNQMGQVEIEDQVEGLQFVAEKYGFIDLSRVAIHGWSYGGFLSLMGLIHKPQVFKVAIAGAPVTVWMAYDTGYTERYMDVPENNQHGYEAGSVALHVEKLPNEPNRLLILHGFLDENVHFFHTNFLVSQLIRAGKPYQLQIYPNERHSIRCPESGEHYEVTLLHFLQEYL
- stoichiometry N: 2
